Laboratory results published in patent US20180244802A1 (DEUTSCHES ZENTRUM FUR NEURODEGENERATIVE ERKRANKUNGEN E V …, published 2018).

Target: T1, NR1 construct with mutation N368Q (human, UniProt Q05586 19-938)
T1 construct: whole, on cells; also called mutated NR1 construct; the mutant
Experiment: immunofluorescence staining of HEK293 cells transfected with NR1 N368Q
Method: The cDNA of the human ionotropic glutamate N-methyl-D-aspartate 1 receptor (GRIN1) was kindly provided by Prof. Dr. Wanker (MDC, Berlin) and cloned into pBudCE4.1 (Life Technologies). NR1 DNA (1 μg) was mixed with 3 μg PEI and 100 μl 150 mM NaCl, vortexed and incubated for 10 min, and HEK293 cells were transiently transfected. Two days later, HEK293 cells on cover slips were fixed with methanol at −20° C. for 4 min. In addition, HEK293 cells transfected with a different NMDAR clone, leucine-rich glioma-inactivated 1 (LGI1), contactinassociated protein 2 (Caspr2), α-amino-3-hydroxy-5-methyl-4-isoxazolepropionic acid (AMPA) receptor, and gamma-aminobutyric acid b (GABAb) receptor were used (Autoimmune-Enzephalitis-Mosaik 1, Euroimmun, Lübeck, Germany). For staining with monoclonal antibodies and control antibodies, cells were washed in PBS, preincubated with 5% normal goat serum containing 2% bovine serum albumin and 0.1% Triton X-100, and incubated with antibodies starting at a 1:2 dilution of the cell culture supernatant overnight at 4° C. Secondary fluorescently labeled anti-human IgG antibodies were used for visualization. Sections were washed in PBS and coverslips mounted with Immu-Mount (ThermoScientific).
Point mutation N368Q was introduced into the NR1 construct using the Stratagene QuikChange Mutagenesis kit according to manufacturer's instructions and the mutant transiently transfected into HEK293 cells as described previously (Doss et al, 2014). Staining of HEK293 cells expressing natural and mutated NR1 construct was performed as described above.

Row | Binder | binding result
1 | 008-218 (antibody, human IgG1, V domains shown, also called 008-218-HC; 008-218-LC) VH: EVQLVESGGGLVQPGRSLRLSCAASGFTFDDYAMHWVRQVPGKGLEWVSGISWSSGSIGYADSVKGRFTISRDNAKNSLYLQMNSLRAEDTALYYCAKDRASSWYAYGMDVWGQGTLVTV VL: NFMLTQPHSVSESPGKTVTISCTRSSGSIASNYVQWYQQRPGSSPTTVIYDDNQRPSGVPNRFSGSIDSSSNSASLIISGLKTEDEADYYCQSTRVFGGGTKLTVL | no binding
2 | 007-168 (antibody, human IgG1, V domains shown) VH: VQLVQSGAEAKKPGESLKISCKASGYSFTTFWIGWVRQMPGSGLEWIGIIYPGDSDTRYSPSFQGHVTISADRSTSTAYLQWSSLKASDTAMYYCARSAVFDYWGQGTLVTVSS VL: EIVMTQSPATLSVSPGGRATLSCRASQSVSSNLAWYQQKPGQAPRLLIYGASTRATGIPVRFSGSGSGTEFTLTISSLQSEDFAVYYCQQYNNWPTSWTFGQGTKVEIK | no binding
3 | 007-169 (antibody, V domains shown, also called 007-169-HC; 007-169-LC) VH: EVQLVQSGAEVKKPGESLKISCKGSGYSFTSYWIGWVRQMPGKGLEWMGIIYPGDSDTRYSPSFQGQVTISADKSISTAYLQWSSLKASDTAMYYCARDYGDYYFDYWGQGTLVTVSS VL: QSALTQPRSVSGSPGQSVTISCTGTSSDVGGYNYVSWYQQHPGKAPKLMIYDVSKRPSGVPDRFSGSKSGNTASLTISGLQAEDEADYYCCSYAGSYTGVFGEGTKLTVL | no binding
4 | 007-142 (antibody, V domains shown, also called 007-142-HC; 007-142-LC) VH: EVQLVQSGAEVKKPGESLKISCKGSGYSFTSYWIGWVRQMPGKGLEWMGIIYPGDSDTRYSPSFQGQVTISADKSISTAYLQWSSLKASDTAMYYCARDYGDYYFDYWGQGTLVTVSS VL: LTQPRSVSGSPGQSVTISCTGTSSDVGGYNYVSWYQQHPGKAPKLMIYDVSKRPSGVPDRFSGSKSGNTASLTISGLQAEDEADYYCCSYAGSYTGVFGGGTKLTVL | no binding
5 | 007-124 (antibody, human IgG1, V domains shown, also called 007-124-HC; 007-124-LC) VH: EVQLVESGGGVGRPGGSLRLSCAASGFTFDDYGMSWVRQVPGKGLEWVSGINWSGADTGYADSVKGRFTISRDNAKNSLYLQMNSLRVEDTALYHCAREVGIAVTGYWFDPWGQGTLVTV VL: SYELTQPPSVSVAPGQTARISCGGNHSESVHWYQQKPGQAPVLVVYDDSDRPSGIPERFSGSKSGNTATLTISRVEGGDEAEYYCQVWDSSSDHPGVVFGGGTKLTVL | no binding
6 | 003-109 (antibody, V domains shown, also called 003-109-HC; 003-109-LC) VH: VQLVESGGGVVQPGRSLRLSCAASGFTFSSYGMHWVRQAPGKGLEWVAVIWYDGSNKYYADSVKGRFTISRDNSKNTLYLQMNSLRAEDTAVYYCARRHYDFDAFDIWGQGTMVTVSS VL: QSALTQPASVSGSPGQSITISCTGTSSDVGGYNYVSWYQQHPGKAPKLMIYEVSNRPSGVSNRFSGSKSGNTASLTISGLQAEDEADYYCSSYTSSSTLYVFGTGTKVTVL | no binding
